Reference: patent publication US20260001914A1, “MACROCYCLIC PEPTIDES TARGETING KRAS” (Merck Sharp & Dohme LLC, priority 2022, published 2026)

Biological target: Biotin-labeled KRAS-G12D protein (UniProt P01116-2 1-169, limits assumed, biotin label (site not stated); loaded with BODIPY-GDP)
Assay: cell-based or functional assay

Substance | SOS assay EC50
cyclo(F-NH2IMNva-d3Pal-cBuA-Phe2F-Nle-NMe3Pal-amBCP) (peptide) | 1.14 nM
cyclo(F-R-3Pal-Nle-TyrOMe-Nle-NMeF-cBuAc) (peptide) | 117 nM
cyclo(F-R-Phe4Gn-Nle-TyrOMe-Nle-NMeF-cBuAc) (peptide) | 419 nM
cyclo(Phe4F-R-4Pal-L-TyrOMe-Nva-NMeF-dC6-C1Ac) (peptide) | 369 nM
cyclo(F-OmN3-3Pal-Nle-Phe2F-Nle-NMe3Pal-c3amCblc) (peptide) | 5590 nM
cyclo(F-R-3Pal-cBuA-TyrOMe-124triazole-dC~C1Ac) (peptide) | 2820 nM
cyclo(Y-hS-3Pal-cBuA-Phe2F-Nle-NMe3Pal-daMeC1-C1Ac) (peptide) | 6680 nM
cyclo(F-R-Phe4Gnc2-Nle-TyrOMe-Nle-NMeF-c3amCblc) (peptide) | 15.6 nM
cyclo(INal-R-K-Nle-Phe3AcOH-Nle-NMeF-Cysteamine-C1Ac) (peptide) | 2650 nM
cyclo(F-NO2IMNva-d3Pal-cBuA-Phe2F-Nle-NMe3Pal-amBCP) (peptide) | 242 nM
cyclo(F-NMeDabN3-3Pal-Nle-Phe2F-Nle-NMe3Pal-amBCP) (peptide) | 267 nM
cyclo(F-R-d3Pal-cBuA-Phe2F-Nle-NMe3Pal-BCP) (peptide) | 1140 nM
cyclo(F-R-3Pal-cBuA-TyrOMe-Nle-NMeF-spiro44) (peptide) | 7340 nM
cyclo(C1Ac-F-R-3Pal-cBuA-Hag-Nle-NMe3Pal-C) (peptide) | 9150 nM
cyclo(F-R-3Pal-Nle-I-Nle-NMe3Pal-aMeC1-C1Ac) (peptide) | 642 nM
cyclo(F-R-3Pal-Nle-TyrOMe-Nle-NMeF-cHxclacid4NH2) (peptide) | 256 nM
cyclo(Phe4NH2-Om-3Pal-cBuA-TyrOMe-Nle-NMe3Pal-daMeC1-C1Ac) (peptide) | 1060 nM
cyclo(F-R-Phe4cMph-Nle-TyrOMe-Nle-NMeF-c3amCblc) (peptide) | 60.6 nM

Substance | SOS assay EC50
cyclo(FLac-NMeA-PyrimAla-cPrA-4Pal2F-hL-NMeF-amBCP) (peptide) | 2.69 nM
cyclo(F-R-hK-Nle-Bip-hY-NMeF-Cysteamine-C1Ac) (peptide) | 4490 nM
cyclo(F-R-3Pal-cBuA-TyrOMe-AheNMeAhe-aMeC-C1Ac) (peptide) | 900 nM
cyclo(C1Ac-F-R-3Pal-cBuA-Ape-Nle-NMe3Pal-C) (peptide) | 7270 nM
cyclo(F-R-3Pal-Nle-Phe2F-Nle-NMe3Pal-aMeC7-C1Ac) (peptide) | 728 nM
cyclo(F-NMeDabN3-3Pal-Nle-Phe2F-Nle-NMe3Pal-c3amCb1c) (peptide) | 753 nM
cyclo(Y-Orn-3Pal-cBuA-TyrOMe-Nle-NMe3Pal-daMeC1-C1Ac) (peptide) | 659 nM
cyclo(F-R-3Pal-Nle-TyrOMe-Nle-NMeF-13amCb1c) (peptide) | 186 nM
cyclo(F-R-3Pal-Nle-PraMe-Nle-NMe3Pal-aMeC1-C1Ac) (peptide) | 3070 nM
cyclo(NMeF-NMeNvaImid-3Pal-Nle-Phe2F-Nle-NMe3Pal-tamcPr) (peptide) | 7650 nM
cyclo(F-R-3Pal-Nle-V-Nle-NMe3Pal-aMeC1-C1Ac) (peptide) | 329 nM
cyclo(F-ArgMeMe-Phe4Gn-L-TyrOMe-Nle-NMeF-dC1-C1Ac) (peptide) | 1160 nM
cyclo(1Nal-R-Phe4CH2NHAc-Nle-Y-Nle-NMeF-daMeC-C1Ac) (peptide) | 7030 nM
cyclo(F-R-3Pal-Nle-TyrOMe-Nle-NMeF-cBuTE-C1Ac) (peptide) | 3440 nM
cyclo(F-R-hS-cBuA-Phe2F-Nle-NMeF-aMeC1-C1Ac) (peptide) | 503 nM
cyclo(TyrOMe-Orn~3Pal-cBuA-Phe2F-Nle-NMe3Pal-daMeC1-C1Ac) (peptide) | 2130 nM
cyclo(F-R-3Pal-cBuA-TyrOMe-RdHagNMeHag-aMeC-C1Ac) (peptide) | 299 nM
